Measurements reported in patent publication US20220153832A1 (PIONYR IMMUNOTHERAPEUTICS, published 2022).
Numbering of substitutions follows the chain as printed.

Tests used:
[1] = molecular target: T1, Human Macrophage Receptor with Collagenous Structure (MARCO), full length, on cells (human, UniProt Q9UEW3 1-520); test: cell-based competition with AF488 E. coli binding to cells expressing MARCO
T1 construct: the cell type is named under assay; also called huMARCO; HuMARCO
T1 sequence: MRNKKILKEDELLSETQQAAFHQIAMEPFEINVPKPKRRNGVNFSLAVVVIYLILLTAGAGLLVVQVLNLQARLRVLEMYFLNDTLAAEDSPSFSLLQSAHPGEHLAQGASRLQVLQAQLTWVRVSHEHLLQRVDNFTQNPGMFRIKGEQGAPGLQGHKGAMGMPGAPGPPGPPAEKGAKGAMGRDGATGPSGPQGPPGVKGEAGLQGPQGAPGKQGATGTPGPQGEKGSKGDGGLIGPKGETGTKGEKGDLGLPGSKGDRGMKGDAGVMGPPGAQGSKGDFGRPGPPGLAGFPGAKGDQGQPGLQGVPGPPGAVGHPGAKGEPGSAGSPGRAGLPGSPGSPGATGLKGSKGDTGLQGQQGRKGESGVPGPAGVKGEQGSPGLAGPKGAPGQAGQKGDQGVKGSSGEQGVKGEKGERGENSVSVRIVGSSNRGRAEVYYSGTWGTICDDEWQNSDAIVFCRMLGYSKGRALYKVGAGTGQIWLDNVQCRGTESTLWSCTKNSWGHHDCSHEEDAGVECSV
Experimental: Zombie NIR viability dye (BioLegend), prepared by diluting the stock 1000-fold in D-PBS, was added to the cells and incubated for 10 min at RT in the dark. The reaction was quenched by adding 1 m of 4× Staining buffer (2% FBS in DBPS containing Ca2+), followed by centrifugation at 400×g for 5 min at 4° C. Cells were then plated in V-shaped 96 well plates at a density of 100,000 cells. A488-fluorescently labeled bacteria (E. coli from Invitrogen) was added at 10 μg/ml with the anti-human MARCO antibodies of interest for a 30 min incubation at 37 C. Plates were then washed twice followed by resuspension in 100 ul of staining buffer for acquisition on the flow cytometer (Attune NxT, Life Technologies). Flow cytometry data were analyzed using FlowJo software (version 10.6.1) and data were processed and further analyzed in Microsoft Excel and GraphPad Prism software (version 8).

[2] = molecular target: T2, N-terminally polyhistidine tagged human MARCO ECD (147-520), recombinant (human, UniProt Q9UEW3 147-520); test: ELISA on recombinant human MARCO, 10 mM EDTA
T2 construct: also called PI-RG-3000; recombinant human MARCO; not shown: N-terminal polyhistidine tag
T2 sequence: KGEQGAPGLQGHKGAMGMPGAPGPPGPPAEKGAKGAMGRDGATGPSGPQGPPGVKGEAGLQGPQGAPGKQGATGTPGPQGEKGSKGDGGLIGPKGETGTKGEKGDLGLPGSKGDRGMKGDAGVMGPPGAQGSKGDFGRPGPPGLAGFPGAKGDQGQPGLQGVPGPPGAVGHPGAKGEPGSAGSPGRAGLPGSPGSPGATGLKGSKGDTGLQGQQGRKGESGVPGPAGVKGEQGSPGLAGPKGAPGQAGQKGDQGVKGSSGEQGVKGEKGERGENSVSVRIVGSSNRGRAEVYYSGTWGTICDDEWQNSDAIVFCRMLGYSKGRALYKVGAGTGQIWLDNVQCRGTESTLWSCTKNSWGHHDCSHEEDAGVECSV
Experimental: After the plates were incubated at room temperature for 1 hour or 4° C. overnight, the plates were wash 3 times with ELISA wash buffer (PBS/0.05% TWEEN-20), then hybridoma supernatant (1:5 dilution) or purified antibody (1 ug) was diluted in DPBS/Ca2+/2% FBS, DPBS without Ca2+/2 mM EDTA/2% FBS, DPBS without Ca2+/10 mM EDTA/2% FBS, and DPBS without Ca2+/50 mM EDTA/2% FBS. Plates again were incubated at room temperature for 1 hour.

[3] = molecular target: T1, Human Macrophage Receptor with …; test: flow cytometry, 293T (HuMARCO)
Experimental: Supernatants were removed and cell pellets were resuspended in Ca²⁺+ and Mg²⁺+ Dulbecco's phosphate-buffered saline (D-PBS) at 1×10⁶ cells/ml. 100,000 cells/well were plated onto U-bottom 96-well plates for staining and all centrifugation steps were performed at 1500 rpm at 4° C. for 5 min and samples were kept protected from light throughout the protocol. Cells were pelleted and resuspended in 100 μl of Zombie NIR viability dye (BioLegend) prepared by diluting Zombie NIR dimethyl sulfoxide (DMSO) stock 1000-fold in D-PBS. Cells were stained by incubation for 10 min at room temperature (RT) in the dark, followed by quenching the staining reaction with the addition of 100 μl of Staining Medium (D-PBS containing 2% FBS and 2 mM ethylenediaminetetraacetic acid (EDTA). Cells were pelleted and resuspended in 100 μl of the different antibodies and hybridomas supernatants needed for screening and corresponding isotype controls in freshly prepared staining medium, such as PI-M014 and mIgG2b isotype. All mAbs were tested at the final top concentration of 100 nM (15 μg/ml) followed by an 8-point three-fold serial dilution, including 0 mg/ml control. Staining was carried out for 1 hour (hr) on ice, followed by 2 washes in Staining Medium. Cells were then pelleted and resuspended in 100 μl of allophycocyanin (APC)-conjugated goat anti-mouse IgG (Fc-specific) secondary antibody, prepared by 500-fold dilution of the antibody stocks in Staining Medium, and incubated for 30 min on ice. Plates were then washed two times with Staining Medium, followed by resuspension in 150 μl of the same buffer for acquisition on the flow cytometer (Attune NxT, Life Technologies). Flow cytometry data were analyzed using FlowJo software (version 10.6.1) and data were processed and further analyzed in Microsoft Excel and GraphPad Prism software (version 8). Half-maximal effective concentrations (EC₅₀) were calculated based on geometric mean fluorescence intensities (gMFI). In case when the plates were not able to be analyzed on the cytometer, cells were pelleted after the washes and fixed in 100 μl of 2% paraformaldehyde (PFA), prepared by diluting the 16% (w/v) stock (Thermo Fisher) in DPBS, for 15 min at RT. Cells were then pelleted and the fixative was removed, followed by resuspension in 150 μl of Staining Medium and stored at 4° C. until acquisition on the flow cytometer.

[4] = molecular target: T1, Human Macrophage Receptor with …; test: flow cytometry, 293T HuMARCO cells
Summary of the method: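 Binding to HEK293T cells expressing human or cynomolgus MARCO was measured by flow cytometry at 100,000 cells/well after Zombie NIR viability staining. Antibodies started at 100 nM in an 8-point three-fold dilution in D-PBS/2% FBS/2 mM EDTA for 1 hr on ice, then APC goat anti-mouse IgG for 30 min on ice. Cells were acquired on an Attune NxT. Geometric mean fluorescence intensities were analysed in FlowJo and Prism.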

B1: PI-3015-AB (antibody, human IgG1, kappa)
heavy: not shown
light: DIQMTQSPSSLSASVGDRVTITCRASEGISNDLAWYQQKPGKAPKLLIYAASRLQSGVPSRFSGSGSGTDYTLTISSMQPEDFATYYCQQSYKYPLTFGQGTKLEIKRTVAAPSVFIFPPSDEQLKSGTASVVCLLNNFYPREAKVQWKVDNALQSGNSQESVTEQDSKDSTYSLSSTLTLSKADYEKHKVYACEVTHQGLSSPVTKSFNRGEC
An EC50 [1] of 0.5 nM was found for B1 in this work.

B2: PI-HX-3031 (antibody)
heavy: QVQLKESGPGLVQPSQTLSLTCTVSGFSLTSYHVSWVRQPPGKGLEWMGAIWTGGSIAYNSLLKSRLSISRDTSKSQVFLKMNSLQTEDTATYYCARDLSDYYSSYTSFDYWGQGVMVTVSTAETTAPSVYPLAPGTALKSNSMVTLGCLVKGYFPEPVTVTWNSGALSSGVHTFPAVLQSGLYTLTSSVTVPSSTWSSQAVTCNVAHPASSTKVDKKIVPRECNPCGCTGSEVSSVFIFPPKTKDVLTITLTPKVTCVVVDISQNDPEVRFSWFIDDVEVHTAQTHAPEKQSNSTLRSVSELPIVHRDWLNGKTFKCKVNSGAFPAPIEKSISKPEGTPRGPQVYTMAPPKEEMTQSQVSITCMVKGFYPPDIYTEWKMNGQPQENYKNTPPTMDTDGSYFLYSKLNVKKETWQQGNTFTCSVLHEGLHNHHTEKSLSHSP
light: DIQMTQSPASLSTSLGETVSIECLASEGISNDLAWYQQKSGKSPQLLIYAASRLQDGVPSRFSGSGSGTRYSLKISGMQPEDEADYFCQQSYKYPLTFGSGTKLEIKRADAAPTVSIFPPSTEQLATGGASVVCLMNNFYPRDISVKWKIDGTERRDGVLDSVTDQDSKDSTYSMSSTLSLTKADYESHNLYTCEVVHKTSSSPVVKSFNRNEC
notes: Parental rat hybridoma, rat IgG2a
In the case of B2, the “ELISA signal (A450)” value [2] is reported as 0.0589 and the EC50 [3] is reported as 0.141 nM.

B3: PI-HX-3043 (antibody, rat IgG2a)
heavy: QVNLLQSRAALVKPGASVKLSCKASGYTFTDYYLHWVKQSHAKSLEWIGYINPNNAYTSYNEKFKSKATLTVDKSTNTAYMELSRLTSADSATYYCARDTTDYYNLHFAYWGQGTLVTVSSAETTAPSVYPLAPGTALKSNSMVTLGCLVKGYFPEPVTVTWNSGALSSGVHTFPAVLQSGLYTLTSSVTVPSSTWSSQAVTCNVAHPASSTKVDKKIVPRECNPCGCTGSEVSSVFIFPPKTKDVLTITLTPKVTCVVVDISQNDPEVRFSWFIDDVEVHTAQTHAPEKQSNSTLRSVSELPIVHRDWLNGKTFKCKVNSGAFPAPIEKSISKPEGTPRGPQVYTMAPPKEEMTQSQVSITCMVKGFYPPDIYTEWKMNGQPQENYKNTPPTMDTDGSYFLYSKLNVKKETWQQGNTFTCSVLHEGLHNHHTEKSLSHSP
light: B2 light with T13A, A25T, A50D, Q55E, P80T
notes: as for B2
For B3, the “ELISA signal (A450)” value [2] was 0.06 and the EC50 [3] was 0.438 nM.

B4: PI-HX-3061 (antibody, rat IgG2a)
heavy: EVQLVESGGGLVQPGSSLKLSCVASKFTFSNYGMNWIRQAPKKGLEWIALIYYNSNNKYYADSVKGRFTISRDNSKNTLYLEMNSLRSEDTAMYYCAKSLTGGSDYFDSWGQGVMVTVSSAETTAPSVYPLAPGTALKSNSMVTLGCLVKGYFPEPVTVTWNSGALSSGVHTFPAVLQSGLYTLTSSVTVPSSTWPSQTVTCNVAHPASSTKVDKKIVPRNCGGDCKPCICTGSEVSSVFIFPPKPKDVLTITLTPKVTCVVVDISQDDPEVHFSWFVDDVEVHTAQTRPPEEQFNSTFRSVSELPILHQDWLNGRTFRCKVTSAAFPSPIEKTISKPEGRTQVPHVYTMSPTKEEMTQNEVSITCMVKGFYPPDIYVEWQMNGQPQENYKNTPPTMDTDGSYFLYSKLNVKKEKWQQGNTFTCSVLHEGLHNHHTEKSLSHSP
light: DVQMTQSPSYLAASPGESVSISCKASKSIGTFLAWYQEKPEKTNKLLIYSGSTLQSGTPSRFSGSGSGTDFTLTIRNLEPEDFAVYYCQQHDEYPFTFGSGTKLEIKRADAAPTVSIFPPSTEQLATGGASVVCLMNNFYPRDISVKWKIDGTERRDGVLDSVTDQDSKDSTYSMSSTLSLTKADYESHNLYTCEVVHKTSSSPVVKSFNRNEC
notes: Parental rat hybridoma, rat IgG2a; cross reactive with human and mouse MARCO
An EC50 [3] of 0.49 nM was found for B4 in this work.

B5: PI-3010-AB (antibody, human IgG1, kappa)
heavy: not shown
light: DIQMTQSPASLSTSLGETVSIECLASEGISNDLAWYQQKSGKSPQLLIYAASRLQDGVPSRFSGSGSGTRYSLKISGMQPEDEADYFCQQSYKYPLTFGSGTKLEIKRTVAAPSVFIFPPSDEQLKSGTASVVCLLNNFYPREAKVQWKVDNALQSGNSQESVTEQDSKDSTYSLSSTLTLSKADYEKHKVYACEVTHQGLSSPVTKSFNRGEC
An EC50 [1] of 0.44 nM was found for B5 in this work.

B6: PI-HX-3021 (antibody, V domains shown)
VH: QVRLVQSGTALVRPGASVRMSCTASGYSFTDYWVSWVKQSHGQSLEWIGEIYPNSGTTNFNEKFEGKATLTVDKSTSTAYMELSRLTSEDSAIYYCTGEGTFDYWGQGVMVTVSS
VL: EIVLTQSPTTMAASPGEKVTITCRPSSSLSNMHWFQQKSGTSPKPWIYDTSKLASGVPDRFSGSGSGTSYSLTISSMEAEDAATYYCLQRSSYPPTFGAGTKLELK
notes: Rat IgG2a hybridoma antibody; Not the effector dead PI-3021; also called PI-3007 (name of the recombinant form)
B6: no binding [4].

B7: PI-HX-3016 (antibody, rat IgG1, V domains shown)
VH: EVQLVESGGGLVKPGASLKLSCVASGFTFSDDWMNWVRQTPGKAMEWIGDIKYDGSYTNYVPSLKNRLTISRDNAKNTLYLQMTNVRSEDTATYYCTSGGVFDYWGQGVMVTVSS
VL: B6 VL with T5S, P25A, L29V, N31Y, S92G, L105V
notes: Rat IgG1 hybridoma antibody
B7: no binding [4].
